In US20240317873A1 (CITY OF HOPE, published 2024):
Read-outs that look alike come from different tables or passages of the source. One block for each binder: values may come before it.

Columns and labels:
[1] = biological target: T1, HVEM recombinant protein (ELISA-based competition assay) (human, UniProt Q92956 39-202, limits assumed); test: ELISA-based competition assay with recombinant proteins: binding of biotin-labelled HVEM to recombinant LIGHT (the blocked ligand), antibody titrated
T1 construct: The internal control used a biotin-labeled human HVEM; also called recombinant protein of HVEM; biotin-labeled human HVEM
T1 sequence (looked up): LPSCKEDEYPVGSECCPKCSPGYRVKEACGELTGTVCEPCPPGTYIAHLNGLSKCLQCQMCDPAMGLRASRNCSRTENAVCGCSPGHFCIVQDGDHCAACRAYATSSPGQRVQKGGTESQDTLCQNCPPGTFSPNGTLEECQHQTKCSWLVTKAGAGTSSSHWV

[2] = biological target: T2, HVEM (SinoBio, monomeric) (human, UniProt Q92956 39-202); test: SPR, HVEM immobilised on CM5 chip, Fab as analyte, 25 C
T2 construct: Bought protein immobilised on a CM5 chip by EDC/NHS coupling; also called hHVEM; TNFRSF14
T2 sequence (looked up): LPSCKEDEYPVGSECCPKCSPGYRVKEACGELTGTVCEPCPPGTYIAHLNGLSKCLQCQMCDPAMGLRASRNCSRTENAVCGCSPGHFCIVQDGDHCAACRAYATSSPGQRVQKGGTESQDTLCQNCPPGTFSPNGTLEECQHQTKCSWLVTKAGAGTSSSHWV

[3] = biological target: T2, HVEM (SinoBio, monomeric); test: SPR; the chip of this figure is not described, the only SPR set-up of the filing is HVEM (SinoBio, monomeric) on CM5
[4] = biological target: T3, human HVEM on the surface of cells (MM.1S myeloma cells, patient myeloma cells, Jurkat cells overexpressing … (human, UniProt Q92956 39-283)); test: imaging mass cytometry, 166Er-conjugated antibody, mouse bone marrow engrafted with MM1.S cells
T3 construct: whole, on cells; also called CD270; TNFRSF14
T3 sequence (looked up): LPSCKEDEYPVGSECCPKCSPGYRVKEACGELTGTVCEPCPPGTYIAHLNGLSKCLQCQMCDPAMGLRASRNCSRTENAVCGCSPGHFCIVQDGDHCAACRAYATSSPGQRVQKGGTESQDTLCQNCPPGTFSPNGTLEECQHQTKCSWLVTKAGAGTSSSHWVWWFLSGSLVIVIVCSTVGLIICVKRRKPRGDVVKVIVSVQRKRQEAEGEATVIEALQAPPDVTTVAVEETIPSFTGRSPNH
Description: Mass cytometry was performed on mice bone marrow tissues engrafted with MM1.S cells. […] HVEM-4, 5, 13, 17, and 22 were used for staining and the nucleus was counterterstained with Ir-191.

[5] = biological target: T2, HVEM (SinoBio, monomeric); test: SPR; the chip of this figure is not described, the only SPR set-up of the filing is HVEM (SinoBio, monomeric) on CM5; remark: listed apart in the source
[6] = biological target: T3, human HVEM on the surface of cells …; test: imaging mass cytometry, 166Er-conjugated antibody, bone marrow of a multiple myeloma patient
Description: Mass cytometery was performed on bone marrow from a patient with multiple myeloma. […] HVEM-4, 5, 13, 17, and 22 were used for staining and the nucleus was counterterstained with Ir-191.

[7] = biological target: T2, HVEM (SinoBio, monomeric); test: SPR; the chip of this figure is not described, the only SPR set-up of the filing is HVEM (SinoBio, monomeric) on CM5; remark: listed apart in the source

B4: anti-HVEM antibody clone 17 (antibody, human IgG1, kappa, V domains shown)
VH: QIQLVQSGPELKKPGEPVKISCRASGYTLTNFGMNWVKQAPGKGLKWMGWINTYTGEPTYADDFKGRFAFSLETSASTAYLQINNLKNEDTATYFCARSFYGNEHYWGQGTSVTVSS
VL: QIVLTQSPAIMSASPGEKVTLTCSASSSVSSSYLFWYQQKPGSSPKLWIYSTSNLASGVPARFSGHGSGTSYSLTISSMEAEDAASYFCHQWSSYPYTFGGGTKLEIKR
notes: also called HVEM17; HVEM-17
binding result [4]: binds
binding result [5]: binds

B5: anti-HVEM antibody clone 22 (antibody, human IgG1, kappa, V domains shown)
VH: QVQLQQSGAELVRPGASVTLSCKTSGYTFIHYEIHWVKQSPVHGLEWIGAIDPETGGTADNQKFKDKVTLTADKSSNTAYMDLRSLTSEDSAVYYCTRGDWVFAYWGQGTLVTVSA
VL: DVVMTQTPLSLPVSLGDQASISCRSSQSPLHSNGNTYLDWYLQKPGQSPKLLIYKVSNRFSGVPDRFSGSGSGTDFTLKISRVEAEDLGIYFCSQTTHVPPTFGGGTKLEIKR
notes: also called HVEM22; HVEM-22
binding result [6]: binds
binding result [7]: binds

Results, then the binder that gave them:

IC50 (read off the curve) [1]: ~20 nM
B1: mcHVEM13 IgG (clone 13) (antibody, V domains shown)
VH: QIQLVQSGPELKKPGETVKISCKASGYILTNYGMNWVKQAPGKGLKWMGWINTYTGEPTYADAFKGRFAFSLETSASTAYLQINNLKNEDTATYFCARGYGNHWYFDYWGQGTSVTVSS
VL: QIVLTQSPAILSASPGEKVTMTCSASSSVSYMHWYQRKSGTSPKRWIYDTSKLASGVPARFSGSGSGTSYSLTISSMEAEDAATYYCQQWTSDPLTFGAGTKLELKR
notes: Murine chimeric IgG; The constant region of the tested IgG is not spelled out; Metal-conjugated in mass cytometry; also called anti-HVEM13; aHVEM13

Kd [2]: 99.6 nM
koff [2]: 0.138 s⁻¹
kon [2]: 1.38e+06 M⁻¹ s⁻¹
B2: mcHVEM13 Fab (clone 13) (Fab, V domains shown)
VH: QIQLVQSGPELKKPGETVKISCKASGYILTNYGMNWVKQAPGKGLKWMGWINTYTGEPTYADAFKGRFAFSLETSASTAYLQINNLKNEDTATYFCARGYGNHWYFDYWGQGTSVTVSS
VL: QIVLTQSPAILSASPGEKVTMTCSASSSVSYMHWYQRKSGTSPKRWIYDTSKLASGVPARFSGSGSGTSYSLTISSMEAEDAATYYCQQWTSDPLTFGAGTKLELKR
notes: Murine chimeric Fab; also called new mcHVEM13 Fab; anti-hHVEM murine chimeric Fab clone 13

binding result [3]: no binding (tested: 100 nM)
B3: HVEM 23Ab (antibody, human IgG1, kappa, V domains shown)
VH: QIQLVQSGPELKKPGETVKISCKASGYTFTNFGMNWVKQAPGKALKWVGWINTYTGEPTYADDFKGRFAFSLETSATTAYLQISNLKNEDTATYFCARSYYFVTSEDYWGQGTSVTVSS
VL: QIVLTQSPAIMSASPGERVTMTCTARSSVSSSYLHWYQQKPGSSPKLWIYSTSNLASGVPARFSGSGSGASYSLTNSSMEAEDAATYYCHQYHRSTWTFGGGTKLEIKR
notes: also called anti-HVEM antibody clone 23
